# From article PMC9250297
# Experiments:
# [1] = molecular target: HaloTag7 C262S single mutant (UniProt P0A3G2); test: SDS-PAGE gel shift assay
# [2] = molecular target: HaloTag7 C61S single mutant (UniProt P0A3G2); test: SDS-PAGE gel shift assay
Substance,stoichiometry N [1],stoichiometry N [2]
HaloTag7 C262S single mutant (from UniProt P0A3G2 1-293) (enzyme),2,
HaloTag7 C61S single mutant (from UniProt P0A3G2 1-293) (enzyme),,2
